Entries after “also recorded” stand apart in the source; their conditions may differ.
Key:
[1] = system: Axl expressing human cancer cell lines; assay: BA3011 in vitro functional assays of cellular toxicity; type: cell-based
[2] = BA3011 repeat dose intravenous toxicology study in monkey; type: in vivo, cynomolgus monkey
Experimental: The nonclinical intravenous (IV) toxicity of BA3011 was evaluated in the monkey in an initial dose-range finding study followed by a definitive Good Laboratory Practice repeat dose toxicology study. […] Many of the toxicities observed with BA3011 are similar to other ADCs conjugated to MMAE.
Based on the results at the 5 and 10 mg/kg/dose, the no-observed-adverse-effect-level (NOAEL) of BA3011 was considered to be 1 mg/kg/dose for both males and females. […] The highest non-severely toxic dose (HNSTD) was 5 mg/kg/dose, with C0 on Day 22 at 111 μg/mL and AUC0-inf at 2370 μg·h/mL.

[3] = molecular target: T1, mouse Axl (Mus musculus, UniProt Q00993); assay: BA3011 binding to mouse Axl
T1 sequence (Q00993 19-888): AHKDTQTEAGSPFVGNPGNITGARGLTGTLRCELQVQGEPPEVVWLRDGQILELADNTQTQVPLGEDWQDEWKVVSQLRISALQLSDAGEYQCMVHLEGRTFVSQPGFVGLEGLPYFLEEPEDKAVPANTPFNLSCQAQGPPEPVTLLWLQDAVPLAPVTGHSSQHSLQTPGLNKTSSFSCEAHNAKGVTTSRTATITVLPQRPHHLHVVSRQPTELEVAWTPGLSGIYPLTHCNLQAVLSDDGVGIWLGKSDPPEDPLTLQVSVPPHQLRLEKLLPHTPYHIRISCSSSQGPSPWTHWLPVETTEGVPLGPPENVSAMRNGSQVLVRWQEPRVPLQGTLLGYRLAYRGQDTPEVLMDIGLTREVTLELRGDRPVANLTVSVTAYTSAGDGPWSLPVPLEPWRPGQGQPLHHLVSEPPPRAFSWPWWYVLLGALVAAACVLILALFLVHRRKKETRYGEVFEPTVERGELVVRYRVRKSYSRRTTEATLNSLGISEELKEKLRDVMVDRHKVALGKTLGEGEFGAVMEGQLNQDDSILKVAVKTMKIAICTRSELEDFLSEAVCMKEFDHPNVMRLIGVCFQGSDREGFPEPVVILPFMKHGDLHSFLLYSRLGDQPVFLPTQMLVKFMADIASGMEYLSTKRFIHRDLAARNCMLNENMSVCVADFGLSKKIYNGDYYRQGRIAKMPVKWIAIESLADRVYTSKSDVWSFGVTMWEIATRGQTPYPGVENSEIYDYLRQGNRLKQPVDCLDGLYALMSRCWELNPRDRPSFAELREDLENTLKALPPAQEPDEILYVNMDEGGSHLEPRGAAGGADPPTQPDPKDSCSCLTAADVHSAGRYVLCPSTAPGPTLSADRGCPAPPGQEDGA

B1: Mecbotamab vedotin (conjugate, chains of the INN, looked up)
VH: EVQLVQSGAEVKKPGATVKISCKVSGYSFWGATMNWIRQPPGKGLEWIGLIKPSNGGTSYNQKFKGRVTISADKSISTAYLQWSSLKASDTAMYYCAHGHYESYEAMDYWGQGTLVTVSS
VL: DIQMTQSPSSLSASVGDRVTITCKASQDVVSAVAWYQQKPGQAPRLLIYWQDTRHTGVPSRFSGSGSGTEFTLTISSLQPDDFATYYCQEHFSPPLTFGQGTKVEIK
modifications: MC-vc-PAB-MMAE conjugate
[1]; normal conditions
  cytotoxicity: reduced cytotoxicity
[1]; tumor conditions
  cellular toxicity: induce cellular toxicity
[2]; 10 mg/kg/dose in males and 5 mg/kg/dose in females
  pathological changes in lymphoid organs: adverse pathological changes in lymphoid organs
[2]; 10 mg/kg/dose, Days 1 and 22, IV slow bolus
  mortality: early deaths in females
[2]; 5 and 10 mg/kg/dose in both sexes
  hematological changes: adverse hematological changes
[2]; any of the dose levels tested
  changes in body weight, electrocardiogram (ECG), ophthalmology, or urinalysis: No test article-related changes
[2]; cynomolgus monkey, in vivo
  highest non-severely toxic dose (HNSTD): 5 mg/kg/dose
[3]
  binding to mouse Axl: not mouse or rat Axl; also recorded: lacked binding to the rodent enzyme

— patent publication US20250276075A1, “METHODS OF TREATING AXL-EXPRESSING CANCERS WITH ANTI-AXL ANTIBODIES, ANTIBODY FRAGMENTS AND THEIR IMMUNOCONJUGATES” (BIOATLA, INC., priority 2020, published 2025)
